Measured values: the RNAGym collection of RNA variant scans (doi:10.1093/molbev/msab373)

B1: Azoarcus group I ribozyme (parent)
chain: GUGCCUUGCGCCGGGAAACCACGCAAGGGAUGGUGUCAAAUUCGGCGAAACCUAAGCGCCCGCCCGGGCGUAUGGCAACGCCGAGCCAAGCUUCGGCGCCUGCGCCGAUGAAGGUGUAGAGACUAGACGGCACCCACCUAAGGCAAACGCUAUGGUGAAGGCAUAGUCCAGGGAGUGGCGAAAGUCACACAAACCGG

Variants of: B1
Assay: reverse-splicing fitness (ratio to wild type); higher = more active; in vitro selection; Mg2+ level not given
How it was run: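 An in vitro group I ribozyme library with randomized positions was T7-transcribed and gel-purified. In triplicate, 10 pmol RNA in EPPS pH 7.5 was reacted with 50 pmoles of a 30-nt RNA substrate for 1 h at 37 °C across several added MgCl2 levels (1–48 mM), then stopped with EDTA. Products were reverse transcribed from a substrate-complementary primer, PCR-amplified and sequenced (HiSeq 4000). Fitness is a variant's read proportion after selection over that before, normalised to wild type.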

Variant | reverse-splicing fitness
C82G A111C C169U U176C | 0.0154
C82G A111C C150U C169A U176G | 0.00817
C82G A111C C150U C169A U176A | 0.0125
C82G A111C C150U C169A U176C | 0.0143
C82G A111G | 0.411
C82G A111G A120C A145G C150G C169U U176C | 0.0142
C82G A111G A120C A145G C150G C169U U176G | 0.00784
C82G A111G A120C A145G C150G C169U U176A | 0.0118
C82G A111G A120C A145G C150G U176C | 0.011
C82G A111G A120C A145G C150G U176G | 0.0057
C82G A111G A120C A145G C150G U176A | 0.00724
C82G A111G A120C A145C C150A C169G U176G | 0.00633
C82G A111G A120C A145C C150A C169G U176A | 0.026
C82G A111G A120C A145C C150A C169G U176C | 0.0173
C82G A111G A120C A145C C150A C169U U176G | 0.00668
C82G A111G A120C A145C C150A C169U U176A | 0.0148
C82G A111G A120C A145C C150A C169U U176C | 0.0126
C82G A111C C150U C169U U176A | 0.015
C82G A111C C150U C169U U176C | 0.0142
C82G A111C C150U C169U U176G | 0.00854
C82G A111C A145U U176A | 0.138

Variant | reverse-splicing fitness
C82G A111C A145U U176G | 0.0645
C82G A111C A145U U176C | 0.136
C82G A111C C150U C169G U176G | 0.00784
C82G A111C C150U C169G U176A | 0.0133
C82G A111C C150U C169G U176C | 0.0174
C82G A111G A120C A145G C150A C169A U176A | 0.0208
C82G A111G A120C A145G C150A C169A U176G | 0.00804
C82G A111G A120C A145G C150A C169A U176C | 0.0227
C82G A111G A120C A145C C150G C169G | 0.00805
C82G A111G A120C A145C C150G C169U | 0.00968
C82G A111G A120C A145C C150G C169A | 0.00872
C82G A111G A120C A145C C150U U176A | 0.0141
C82G A111G A120C A145C C150U U176C | 0.0167
C82G A111G A120C A145C C150U U176G | 0.00724
C82G A111C C150A C169U U176A | 0.0193
C82G A111C C150A C169U U176G | 0.0093
C82G A111C C150A C169U U176C | 0.0178
C82G A111C A145U C169U U176C | 0.0153
C82G A111C A145U C169U U176G | 0.00693
C82G A111C C150A C169G U176C | 0.024
C82G A111C C150A C169G U176A | 0.0173

Variant | reverse-splicing fitness
C82G A111C C150A C169G U176G | 0.00931
C82G A111C C150G | 0.0174
C82G A111C C150U | 0.143
C82G A111C C150A | 0.0254
C82G A111C C150A U176G | 0.0116
C82G A111C C150A U176A | 0.0223
C82G A111C C150A U176C | 0.0293
C82G A111C C150U C169G | 0.00815
C82G A111C C150U C169U | 0.0125
C82G A111C C150U C169A | 0.0113
C82G A111G A120C A145C C169A U176A | 0.0154
C82G A111G A120C A145C C169A U176C | 0.0106
C82G A111G A120C A145C C169A U176G | 0.00459
C82G A111G A120C A145G C150G C169G U176A | 0.0109
C82G A111G A120C A145G C150G C169G U176C | 0.0112
C82G A111G A120C A145G C150G C169G U176G | 0.00653
C82G A111G A120C A145C C150U C169U U176A | 0.013
C82G A111G A120C A145C C150U C169U U176G | 0.00553
C82G A111G A120C A145C C150U C169U U176C | 0.0121
C82G A111C C169G U176A | 0.0182
C82G A111C C169G U176C | 0.0255

Variant | reverse-splicing fitness
C82G A111C C169G U176G | 0.00724
C82G A111G A120C A145C C150G C169A U176C | 0.0103
C82G A111G A120C A145C C150G C169A U176A | 0.0108
C82G A111G A120C A145C C150G C169A U176G | 0.00627
C82G A111G A120C A145G C150A C169G U176G | 0.00696
C82G A111G A120C A145G C150A C169G U176A | 0.02
C82G A111G A120C A145G C150A C169G U176C | 0.0237
C82G A111G A120C A145C C150U C169U | 0.0103
C82G A111G A120C A145C C150U C169A | 0.00918
C82G A111G A120C A145C C150U C169G | 0.00849
C82G A111C C150A C169G | 0.00787
C82G A111C C150A C169A | 0.011
C82G A111C C150A C169U | 0.0119
C82G A111G A120C A145C | 0.0798
C82G A111G A120C A145G | 0.0871
C82G A111C C169A | 0.00871
C82G A111C C169G | 0.00928
C82G A111C C169U | 0.0148
C82G A111G A120C A145C C150A C169A U176G | 0.00653
C82G A111G A120C A145C C150A C169A U176C | 0.00849
C82G A111G A120C A145C C150A C169A U176A | 0.0183
